According to patent publication US20110274694:

Target: purified Gβγ (G-protein βγ-subunits)

B1: His6-Erk2 (purified, wild-type) (protein)
chain: MAAAAAAGPEMVRGQVFDVGPRYTNLSYIGEGAYGMVCSAYDNLNKVRVAIKKISPFEHQTYCQRTLREIKILLRFRHENIIGINDIIRAPTIEQMKDVYIVQDLMETDLYKLLKTQHLSNDHICYFLYQILRGLKYIHSANVLHRDLKPSNLLLNTTCDLKICDFGLARVADPDHDHTGFLTEYVATRWYRAPEIMLNSKGYTKSIDIWSVGCILAEMLSNRPIFPGKHYLDQLNHILGILGSPSQEDLNCIINLKARNYLLSLPHKNKVPWNRLFPNADSKALDLLDKMLTFNPHKRIEVEQALAHPYLEQYYDPSDEPIAEAPFKFDMELDDLPKEKLKELIFEETARFQPGYRS
- phosphorylation of Erk2 ([32P]-autoradiography): caused increased phosphorylation of Erk2 to an extent similar to that caused by Mek*
